The source of these data is patent US20020002269A1, “ARTEMIN, A NEUROTROPHIC FACTOR” (priority 1998, published 2002).

Type in all cases: cell-based
For test [1], the system named is SAN neuroblastoma cell line. The test can be described thus: Responsiveness of a neuroblastoma cell line that does not express RET (SAN). As to conditions: data not shown.
In the next test the target is T1, RET (Homo sapiens, UniProt P07949).
T1 construct: both the SH-SY5Y and NBL-S cell lines express GFRα1, GFRα2, and GFRα3, as well as RET; endogenous in cells; host or cells: NBL-S neuroblastoma cells
Description: Western blot of RET phosphorylation and MAP kinase activation in NBL-S cells, with or without PI-PLC. As to conditions: FIG. 9B. The protocol:
In brief, SCG neurons were dissected from postnatal day 1 (P1) rats and maintained in NGF-containing medium for 5 days, after which they were deprived of NGF by switching to NGF-free medium in the presence of anti-NGF antibodies. After 2 hours without NGF, neurons were switched to medium containing NGF, GDNF or artemin at 50 ng/ml for 20 minutes. Cells were washed in cold PBS, and collected in immunoprecipitation buffer (1 mM EDTA/1 mM EGTA/0.2 mM NaVO3/1 mM Pefabloc/1 uM pepstatin A/10 ug/ml leupeptin/2 ug/ml aprotinin/1% Triton X-100/0.5% Nonidet P-40/150 mM NaCl in 10 mM Tris, pH 7.4). The lysates were incubated with 30 μl agarose-conjugated anti-phosphotyrosine antibodies (Calbiochem) at 4° C. for 1 hr. Beads were then washed three times with immunoprecipitation buffer, resuspended in SDS sample buffer, and boiled for 5 min. Samples were separated using SDS-PAGE, and transferred to nitrocellulose membranes. Membranes were blocked for 1 hr at 25° C. in TBS containing 5% dry milk, incubated overnight 4° C. with a 1:300 dilution of anti-Ret antibody (C-19; Santa Cruz), then washed (3× in TBS containing 0.1% Tween-20) and incubated in a 1:10,000 dilution of anti-rabbit antibodies conjugated to HRP (Jackson Immunoresearch). Membranes were washed 3×, incubated with SuperSignal ULTRA (Pierce) for 5 minutes, then exposed to film. For MAP kinase (MAPK) assays, a portion of the total lysate wars removed before immunoprecipitation, separated by SDS-PAGE, and immunoblotted using an anti-phospho-MAP-kinase antibody (New England Biolabs).
NBL-S cells were plated at 3×10^5 cells/well in 6-well plates, and after 46 hr switched to low-serum (0.5%) medium for 2 hr, and then stimulated with NGF, GDNF or artemin (50 ng/ml) for 20 min. Cells were then collected and analyzed as above. For PI-PLC treatment, a parallel set of NBL-S cells were plated as above but treated with 500 mU/ml of PI-PLC (Boehringer-Mannheim) for 1 hr, and washed with PBS and stimulated with factors as above.
For orientation: A western blot detects proteins with antibodies after separation by electrophoresis.

Test [2] concerns NLF cells transformed with GFRα1. Description: Ga14-Elk/Ga14-Luc reporter in NLF neuroblastoma cells transformed with GFRα1. As to conditions: factor for 24 hours, low-serum medium, FIG. 10B. The protocol:
(§1) Thus, to directly test which receptor combinations can form functional receptors for artemin, expression plasmids for the individual GFRA coreceptors together with the Ga14-Elk/Ga14-Luc reporter system were transiently transformed into fibroblasts that stably express RET. […]
(§2) NLF neuroblastoma cells, which naturally express GFRα2/RET (Tansey et al., submitted), or the RET-3T3 cells were plated at 85,000 cells/well in 12-well plates, and cotransfected with the reporter plasmids Ga14-Luc and CMV-Ga14-Elk (250 ng/well and 50 ng/well, respectively), CMV-lacZ (50 ng/well) for transfection normalization, one of the CMV-GFRA expression plasmids (500 ng/well), and pBluescript (650 ng/well) as carrier for a total of 1.5 μg DNA/well using the Superfect reagent (Qiagen) according to the manufacturer's instructions. […] Measurement of luciferase and β-galactosidase activity was measured using a luminometer and performed as described (Svaren et al., EMBO J 17:6010-6019, 1998). The average luciferase activity of duplicate samples was normalized to β-galactosidase activity of the cotransformed lacZ reporter, and fold activation was calculated by dividing the normalized activity in factor-treated cells by that in the no treatment control.

In test [3] the test system is NLF cells transformed with GFRα3. Description: Ga14-Elk/Ga14-Luc reporter in NLF neuroblastoma cells transformed with GFRα3. As to conditions: factor for 24 hours, low-serum medium, FIG. 10B. The protocol:
as §1, §2

T1 sequence (P07949 29-1114): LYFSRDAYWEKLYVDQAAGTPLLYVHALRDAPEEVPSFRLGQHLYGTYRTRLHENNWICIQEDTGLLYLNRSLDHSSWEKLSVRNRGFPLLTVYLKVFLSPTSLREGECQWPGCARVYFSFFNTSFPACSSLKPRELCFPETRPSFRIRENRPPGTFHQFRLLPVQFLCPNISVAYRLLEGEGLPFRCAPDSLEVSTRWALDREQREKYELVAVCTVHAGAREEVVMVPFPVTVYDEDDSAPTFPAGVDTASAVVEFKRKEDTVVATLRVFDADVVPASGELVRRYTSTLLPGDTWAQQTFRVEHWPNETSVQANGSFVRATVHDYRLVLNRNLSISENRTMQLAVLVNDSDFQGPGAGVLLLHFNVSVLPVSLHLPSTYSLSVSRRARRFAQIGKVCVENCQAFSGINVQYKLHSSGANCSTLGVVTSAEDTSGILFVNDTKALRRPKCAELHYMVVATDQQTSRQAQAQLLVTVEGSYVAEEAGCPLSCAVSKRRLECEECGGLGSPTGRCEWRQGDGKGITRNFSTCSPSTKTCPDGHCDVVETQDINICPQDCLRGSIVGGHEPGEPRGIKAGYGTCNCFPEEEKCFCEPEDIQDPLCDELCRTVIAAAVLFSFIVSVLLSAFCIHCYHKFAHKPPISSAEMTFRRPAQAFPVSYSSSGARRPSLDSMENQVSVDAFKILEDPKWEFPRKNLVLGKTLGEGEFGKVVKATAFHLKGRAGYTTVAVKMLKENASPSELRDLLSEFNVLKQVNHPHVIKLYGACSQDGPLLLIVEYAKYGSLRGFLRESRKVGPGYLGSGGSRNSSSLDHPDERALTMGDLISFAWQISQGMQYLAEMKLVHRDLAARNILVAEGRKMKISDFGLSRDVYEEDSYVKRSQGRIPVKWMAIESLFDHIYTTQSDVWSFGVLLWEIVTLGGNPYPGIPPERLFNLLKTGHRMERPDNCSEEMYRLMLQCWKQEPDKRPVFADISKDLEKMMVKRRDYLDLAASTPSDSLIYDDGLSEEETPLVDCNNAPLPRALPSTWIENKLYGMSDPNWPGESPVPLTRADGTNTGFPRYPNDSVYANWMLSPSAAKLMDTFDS

On to “artemin: recombinant mature human artemin (FIG. 3A, SEQ ID NO:3) with 8-histidine tag, produced in E. coli; GDNF family neurotrophic factor”, for which, in test [1], the “response of SAN cells” value is given as “did not respond”. Besides, in the test with RET (50 ng/ml for 20 min), the “downstream signaling (activation of the MAP kinase pathway) in NBL-S cells” value is recorded as “effective in eliciting downstream signaling” and the “tyrosine-phosphorylation of RET in NBL-S cells” value is given as “induced tyrosine-phosphorylation of RET”. The “effect of PI-PLC pretreatment on signaling in NBL-S cells” value with RET (500 mU/ml PI-PLC for 1 hr, then factor 50 ng/ml for 20 min) was “abolished artemin's ability to activate RET and all downstream signaling”. Further, the “response of NLF cells transformed with GFRα1 (luciferase reporter)” value in test [2] is on record as “became responsive to artemin”. Moreover, in test [3], the “response of NLF cells transformed with GFRα3 (luciferase reporter)” value is recorded as “allowed the cells to respond to artemin stimulation”.

B1: GDNF: recombinant human mature GDNF obtained from Genentech (protein, UniProt P39905 78-211, looked up)
Glial cell line-derived …: SPDKQMAVLPRRERNRQAAAANPENSRGKGRRGQRGKNRGCVLTAIHLNVTDLGLGYETKEELIFRYCSGSCDAAETTYDKILKNLSRNRRLVSDKVGQACCRPIAFDDDLSFLDDNLVYHILRKHSAKRCGCI
Consider B1, for which the “response of SAN cells” value in test [1] is “did not respond”. Moreover, the “tyrosine-phosphorylation of RET in NBL-S cells” value with RET (50 ng/ml for 20 min) is given as “induced tyrosine-phosphorylation of RET”. Also, the “response of NLF cells transformed with GFRα1 (luciferase reporter)” value in test [2] was “responded more intensely to GDNF”. The “response of NLF cells transformed with GFRα3 (luciferase reporter)” value in test [3] is “decreased the ability of the cells to respond to GDNF”.
